T1: B3GNT2 (Homo sapiens, UniProt Q9NY97)
T1 construct: The respective ORFs of candidate genes [CD274 (NM_014143), MCL1 (NM_021960), JUNB (NM_002229), and B3GNT2 (NM_006577)] were synthesized; expressed in transfected cells; host or cells: A375 melanoma cells (lentiviral ORF overexpression)
T1 sequence (Q9NY97 1-397): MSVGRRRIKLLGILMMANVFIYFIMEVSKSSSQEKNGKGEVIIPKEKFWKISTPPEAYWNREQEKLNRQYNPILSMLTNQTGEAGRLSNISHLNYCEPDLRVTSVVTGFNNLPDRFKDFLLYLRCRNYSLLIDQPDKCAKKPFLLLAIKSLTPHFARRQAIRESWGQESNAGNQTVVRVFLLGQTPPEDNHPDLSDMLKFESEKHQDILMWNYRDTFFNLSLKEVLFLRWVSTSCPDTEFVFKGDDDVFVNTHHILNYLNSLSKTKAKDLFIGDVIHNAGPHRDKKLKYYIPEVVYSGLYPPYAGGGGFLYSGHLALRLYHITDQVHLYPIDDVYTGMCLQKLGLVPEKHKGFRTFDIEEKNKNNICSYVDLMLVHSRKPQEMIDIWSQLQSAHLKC

B1: PGAM5 (protein)
chain: MAFRQALQLAACGLAGGSAAVLFSAVAVGKPRAGGDAEPRPAEPPAWAGGARPGPGVWDPNWDRREPLSLINVRKRNVESGEEELASKLDHYKAKATRHIFLIRHSQYHVDGSLEKDRTLTPLGREQAELTGLRLASLGLKFNKIVHSSMTRAIETTDIISRHLPGVCKVSTDLLREGAPIEPDPPVSHWKPEAVQYYEDGARIEAAFRNYIHRADARQEEDSYEIFICHANVIRYIVCRALQFPPEGWLRLSLNNGSITHLVIRPNGRVALRTLGDTGFMPPDKITRS
B2: PSMC2 (protein)
chain: PDYLGADQRKTKEDEKDDKPIRALDEGDIALLKTYGQSTYSRQIKQVEDDIQQLLKKINELTGIKESDTGLAPPALWDLAADKQTLQSEQPLQVARCTKIINADSEDPKYIINVKQFAKFVVDLSDQVAPTDIEEGMRVGVDRNKYQIHIPLPPKIDPTVTMMQVEEKPDVTYSDVGGCKEQIEKLREVVETPLLHPERFVNLGIEPPKGVLLFGPPGTGKTLCARAVANRTDACFIRVIGSELVQKYVGEGARMVRELFEMARTKKACLIFFDEIDAIGGARFDDGAGGDNEVQRTMLELINQLDGFDPRGNIKVLMATNRPDTLDPALMRPGRLDRKIEFSLPDLEGRTHIFKIHARSMSVERDIRFELLARLCPNSTGAEIRSVCTEAGMFAIRARRKIATEKDFLEAVNKVIKSYAKFSATPRYMTYN
B3: ATAD3A (protein)
chain: SWLFGINKGPKGEGAGPPPPLPPAQPGAEGGGDRGLGDRPAPKDKWSNFDPTGLERAAKAARELEHSRYAKDALNLAQMQEQTLQLEQQSKLKEYEAAVEQLKSEQIRAQAEERRKTLSEETRQHQARAQYQDKLARQRYEDQLKQQQLLNEENLRKQEESVQKQEAMRRATVEREMELRHKNEMLRVEAEARARAKAERENADIIREQIRLKAAEHRQTVLESIRTAGTLFGEGFRAFVTDWDKVTATVAGLTLLAVGVYSAKNATLVAGRFIEARLGKPSLVRETSRITVLEALRHPIQVSRRLLSRPQDALEGVVLSPSLEARVRDIAIATRNTKKNRSLYRNILMYGPPGTGKTLFAKKLALHSGMDYAIMTGGDVAPMGREGVTAMHKLFDWANTSRRGLLLFVDEADAFLRKRATEKISEDLRATLNAFLYRTGQHSNKFMLVLASNQPEQFDWAINDRINEMVHFDLPGQEERERLVRMYFDKYVLKPATEGKQRLKLAQFDYGRKCSEVARLTEGMSGREIAQLAVSWQATAYASEDGVLTEAMMDTRVQDAVQQHQQKMCWLKAEGPGRGDEPSPS
B4: PDIA4 (protein)
chain: VAGAEGPDEDSSNRENAIEDEEEEEEEDDDEEEDDLEVKEENGVLVLNDANFDNFVADKDTVLLEFYAPWCGHCKQFAPEYEKIANILKDKDPPIPVAKIDATSASVLASRFDVSGYPTIKILKKGQAVDYEGSRTQEEIVAKVREVSQPDWTPPPEVTLVLTKENFDEVVNDADIILVEFYAPWCGHCKKLAPEYEKAAKELSKRSPPIPLAKVDATAETDLAKRFDVSGYPTLKIFRKGRPYDYNGPREKYGIVDYMIEQSGPPSKEILTLKQVQEFLKDGDDVIIIGVFKGESDPAYQQYQDAANNLREDYKFHHTFSTEIAKFLKVSQGQLVVMQPEKFQSKYEPRSHMMDVQGSTQDSAIKDFVLKYALPLVGHRKVSNDAKRYTRRPLVVVYYSVDFSFDYRAATQFWRSKVLEVAKDFPEYTFAIADEEDYAGEVKDLGLSESGEDVNAAILDESGKKFAMEPEEFDSDTLREFVTAFKKGKLKPVIKSQPVPKNNKGPVKVVVGKTFDSIVMDPKKDVLIEFYAPWCGHCKQLEPVYNSLAKKYKGQKGLVIAKMDATANDVPSDRYKVEGFPTIYFAPSGDKKNPVKFEGGDRDLEHLSKFIEEHATKLSRTKEEL
B5: UBTF (protein)
chain: MNGEADCPTDLEMAAPKGQDRWSQEDMLTLLECMKNNLPSNDSSKFKTTESHMDWEKVAFKDFSGDMCKLKWVEISNEVRKFRTLTELILDAQEHVKNPYKGKKLKKHPDFPKKPLTPYFRFFMEKRAKYAKLHPEMSNLDLTKILSKKYKELPEKKKMKYIQDFQREKQEFERNLARFREDHPDLIQNAKKSDIPEKPKTPQQLWYTHEKKVYLKVRPDEIMRDYIQKHPELNISEEGITKSTLTKAERQLKDKFDGRPTKPPPNSYSLYCAELMANMKDVPSTERMVLCSQQWKLLSQKEKDAYHKKCDQKKKDYEVELLRFLESLPEEEQQRVLGEEKMLNINKKQATSPASKKPAQEGGKGGSEKPKRPVSAMFIFSEEKRRQLQEERPELSESELTRLLARMWNDLSEKKKAKYKAREAALKAQSERKPGGEREERGKLPESPKRAEEIWQQSVIGDYLARFKNDRVKALKAMEMTWNNMEKKEKLMWIKKAAEDQKRYERELSEMRAPPAATNSSKKMKFQGEPKKPPMNGYQKFSQELLSNGELNHLPLKERMVEIGSRWQRISQSQKEHYKKLAEEQQKQYKVHLDLWVKSLSPQDRAAYKEYISNKRKSMTKLRGPNPKSSRTTLQSKSESEEDDEEDEDDEDEDEEEEDDENGDSSEDGGDSSESSSEDESEDGDENEEDDEDEDDDEDDDEDEDNESEGSSSSSSSSGDSSDSDSN
B6: RCN1 (protein)
chain: KPTVRKERVVRPDSELGERPPEDNQSFQYDHEAFLGKEDSKTFDQLTPDESKERLGKIVDRIDNDGDGFVTTEELKTWIKRVQKRYIFDNVAKVWKDYDRDKDDKISWEEYKQATYGYYLGNPAEFHDSSDHHTFKKMLPRDERRFKAADLNGDLTATREEFTAFLHPEEFEHMKEIVVLETLEDIDKNGDGFVDQDEYIADMFSHEENGPEPDWVLSEREQFNEFRDLNKDGKLDKDEIRHWILPQDYDHAQAEARHLVYESDKNKDEKLTKEEILENWNMFVGSQATNYGEDLTKNHDEL
B7: IFI16 (protein)
chain: MGKKYKNIVLLKGLEVINDYHFRMVKSLLSNDLKLNLKMREEYDKIQIADLMEEKFRGDAGLGKLIKIFEDIPTLEDLAETLKKEKLKVKGPALSRKRKKEVDATSPAPSTSSTVKTEGAEATPGAQKRKKSTKEKAGPKGSKVSEEQTQPPSPAGAGMSTAMGRSPSPKTSLSAPPNSSSTENPKTVAKCQVTPRRNVLQKRPVIVKVLSTTKPFEYETPEMEKKIMFHATVATQTQFFHVKVLNTSLKEKFNGKKIIIISDYLEYDSLLEVNEESTVSEAGPNQTFEVPNKIINRAKETLKIDILHKQASGNIVYGVFMLHKKTVNQKTTIYEIQDDRGKMDVVGTGQCHNIPCEEGDKLQLFCFRLRKKNQMSKLISEMHSFIQIKKKTNPRNNDPKSMKLPQEQRQLPYPSEASTTFPESHLRTPQMPPTTPSSSFFTKKSEDTISKMNDFMRMQILKEGSHFPGPFMTSIGPAESHPHTPQMPPSTPSSSFLTTLKPRLKTEPEEVSIEDSAQSDLKEVMVLNATESFVYEPKEQKKMFHATVATENEVFRVKVFNIDLKEKFTPKKIIAIANYVCRNGFLEVYPFTLVADVNADRNMEIPKGLIRSASVTPKINQLCSQTKGSFVNGVFEVHKKNVRGEFTYYEIQDNTGKMEVVVHGRLTTINCEEGDKLKLTCFELAPKSGNTGELRSVIHSHIKVIKTRKNKKDILNPDSSMETSPDFFF

Target: T1, B3GNT2
Assay: Co-IP of FLAG-tagged B3GNT2 followed by mass spectrometry
Format: cell-based
Design: C-term IgG / C-term flag: unit not given here
Conditions: Co-IP with FLAG antibody, C-terminally FLAG-tagged B3GNT2; mass spectrometry count, unit not given
In short: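 FLAG-tagged B3GNT2 immunoprecipitated from cell lysate (HEPES, 1% Triton X-100, 150 mM NaCl) with anti-FLAG versus […], overnight at 4° C, then captured on Protein A/G magnetic beads for 4 h. Two biological replicates per condition. Peptides fractionated and analyzed by nano-LC on an Orbitrap Elite in data-dependent mode.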

Molecule | C-term flag
B1 | 5
B2 | 0
B3 | 9
B4 | 9
B5 | 2
B6 | 9
B7 | 2

Same assay, conditions: Co-IP with FLAG antibody, N-terminally FLAG-tagged B3GNT2; mass spectrometry count, unit not given

Molecule | N-term FLAG
B1 | 4
B2 | 2
B3 | 0
B4 | 0
B5 | 0
B6 | 0
B7 | 0

Same assay, conditions: Co-IP with IgG control antibody, C-terminally FLAG-tagged B3GNT2; mass spectrometry count, unit not given

Molecule | C-term IgG
B1 | 0
B2 | 0
B3 | 0
B4 | 0
B5 | 0
B6 | 0
B7 | 0

Same assay, conditions: Co-IP with IgG control antibody, N-terminally FLAG-tagged B3GNT2; mass spectrometry count, unit not given

Molecule | N-term IgG
B1 | 0
B2 | 0
B3 | 0
B4 | 0
B5 | 0
B6 | 0
B7 | 0

Source: US20240261333A1, “NOVEL TARGETS FOR ENHANCING ANTI-TUMOR IMMUNITY” (THE BROAD INSTITUTE, INC., priority 2021, published 2024)
